Source: patent publication US20220127642A1, “CONTROLLABLE GENOME EDITING SYSTEM” (APPLIED STEMCELL, INC., priority 2019, published 2022)
Entries after “also recorded” stand apart in the source; their conditions may differ.

System: sgRNA target sequence in pCAG-EGxxFP plasmid, HEK293T cells
Assay: EGxxFP assay of candidate SaCas9 constructs (reconstituted EGFP expression)
Format: cell-based
Settings: tetracycline aptamer and conditional exon inserted in position 2 and 8; FIG. 9
Description: The activity of candidate SaCas9 genes were then tested in an EGxxFP assay as described by Mashiko D et al. (see Sci Rep (2013) 3:3355). In short, the pCAG-EGxxFP plasmid containing 5′ and 3′ EGFP fragments that shares 482 bp under ubiquitous CAG promoter was prepared. An approximately 500 bp region containing the sgRNA target sequence was placed between EGFP fragments of pCAG-EGxxFP plasmid. The pCAG-EGxxFP plasmid was cotransfected with the candidate SaCas9 construct and sgRNA into HEK293T cells. When the candidate SaCas9 gene is properly transcribed and spliced, the target sequence in the EGxxFT gene was digested by sgRNA guided SaCas9 protein, the homologous dependent repair took place and reconstituted the EGFP expression.

B1: M2: tetracycline aptamer domain M2 (SEQ ID NO: 16) controlling splicing of a conditional exon in SaCas9 gene (nucleic acid)
chain: TTTCAGGCGCTAAAACATACCAGATGAAAGTCTGGAGAGGTGAAGAATACGACCACCTAGCGCCTGAAA
modifications: listed as DNA, chemistry not fully specified
  regulating the expression of SaCas9 (EGxxFP assay): worked well; also recorded: performed the best

B2: M3: tetracycline aptamer domain M3 (SEQ ID NO: 18) controlling splicing of a conditional exon in SaCas9 gene (nucleic acid)
chain: TTTCAGGCGCCAAAACATACCAGATGAAAGTCTGGAGAGGTGAAGAATACGACCACCTGGCGCCTGAAA
modifications: listed as DNA, chemistry not fully specified
  regulating the expression of SaCas9 (EGxxFP assay): worked well
